Where “and” joins values, the source holds several entries; their conditions need not be identical. Identical values can stand only once.
Columns and labels:
[1] = test system: stationary phase S. uberis; experiment: Time killing assay (TKA), S. uberis; assay type: cell-based, Streptococcus uberis; conditions: for ΔLog10 (CFU/mL): 1 h
Protocol: (§1) Concerning the time killing assay, an overnight bacterial culture was diluted 1:10 for S. uberis, S. agalactiae-& dysgalactiae or 1:100 for S. aureus in PBS or UHT-pasteurized whole cow's milk. […] Finally, these fractions were serially diluted 1:10 in PBS. 5 μL of each fraction was spotted on TSA or BHI-agar and incubated overnight at 37° C. The following day, colony forming units (CFU) were counted and converted to CFU/mL to calculate logarithmic reductions in comparison with the negative control. The relative scores were calculated by dividing the observed logarithmic reduction for each endolysin by the maximal reduction observed for that specific condition and strain. Next, this value was divided by the number of conditions and strains tested (i.e., 8=4 bacterial strains×2 conditions (PBS/UHT-milk)). As such, the best performing candidate in each individual assay received a score of 0.125 (=(1/1)/8). […] Turbidity reduction assays were performed by combining 100 μL of overnight grown bacterial cells with an equal volume of purified enzyme at the desired concentration. Bacterial cells were washed with PBS and resuspended in a 1:1 ratio with enzyme to an OD600 of approximately 1.0. Next, the OD600 was measured using a Tecan infinite 200 PRO plate reader (Tecan, Switzerland) every 15 seconds at 37° C., shaking the 96-well plate between each measurement.
(§2) Time killing and turbidity reduction assays were performed as previously described in 1.3.1.
(§3) Time killing assays were performed as previously described in 1.3.1.

S. dysgalactiae = experiment: Time killing assay (TKA), S. dysgalactiae; assay type: cell-based, Streptococcus dysgalactiae; conditions: 0.3 μM
Protocol: as §1, §2, §3

[2] = test system: S. uberis GCC ST-143 biofilm; experiment: Biofilm eradication assay; assay type: cell-based, Streptococcus uberis; conditions: 1.5 μM, 2 h30, 37° C.
Protocol: Biofilms were grown by transferring mid-log phase bacteria (OD600=0.6) grown in brain heart infusion (BHI) (Oxoid, Belgium) containing 0.25% α-D-glucose (ThermoFisher Scientific, USA) to a nunclon delta-treated, U-shaped-bottom 96-well microplate (ThermoFisher Scientific, USA). This whole was incubated for 21-24 h in a box containing a wet tissue. Subsequently, media and planktonic cells were removed and 1.5 µM of chimeric endolysin was allowed to eradicate the biofilms during 2 h30 at 37° C. on a shaker at 120 rpm. […] Biomass was fixated with 100% ethanol (ThermoFisher Scientific, USA) and stained with crystal violet (0.1% crystal violet (Sigma-Aldrich, USA), 5% methanol and isopropanol (ThermoFisher Scientific, USA) in PBS. Triple washing with PBS by inverting the plate was executed before solubilizing the stained biomass in 30% acetic acid (Chem-Lab, Belgium). OD590 nm was measured using a CLARIOstar Plus plate reader (BMG Labtech, The Netherlands). Logarithmic reductions were determined by scraping biomass from the wells with a sterile tooth picker followed by resuspension in PBS, which was subsequently serially diluted and spotted on BHI-agar. CFU/mL were counted after overnight incubation at 37° C.

[3] = test system: S. uberis in mastitic raw cow's milk; experiment: Challenge of mastitic raw cow's milk; assay type: cell-based, Streptococcus uberis; conditions: milk of 4 cows, 8 h; 0.5 μM NC5, 50 μg/mL cloxacillin or both
Protocol: Raw cow's milk from S. uberis infected dairy cows was supplied by the milk control center of Flanders (MCC Vlaanderen). Upon arrival, the milk was serially diluted and plated on BHI agar to determine the bacterial load. Only milk with >10^5 […] CFU/mL S. uberis was included as a selection criterium. If needed, the raw milk was incubated during 8 h at 37° C. to artificially increase the initial bacterial load. […] Upon incubation at 37° C., every 2 h, 20 μL was transferred from each well to 180 μL dPBS, serially diluted and plated on BHI agar. Plates were incubated overnight and CFU/mL were calculated the next day. Undiluted, mastitic milk was always pipetted with ClipTip Pipette Tips (Westburg, The Netherlands) due to high viscosity. Mastitis isolates were confirmed as S. uberis by MALDI-TOF MS biotyping.

B1: NC5: chimeric endolysin SEQ ID NO: 17; HIV-1 TAT + PlySs2 CHAP + Ply1081 CW_7 + PlySs9 amidase_3 (protein)
chain: MYGRKKRRQRRRGATTVNEALNNVRAQVGSGVSVGNGECYALASWYERMISPDATVGLGAGVGWVSGAIGDTISAKNIGSSYNWQANGWTVSTSGPFKAGQIVTLGATPGNPYGHVVIVEAVDGDRLTILEQNYGGKRYPVRNYYSAASYRQQVVHYITPPGTVAQSAPNLAGAGIDQLVQETLAGKYGNGEQRKAALGSQYQAVMAVINGKATAPKKTVDQLAQEVIQGKHGNGEDRKKSLGPDYDAVQKRVTEILKGSPSGNIPKTPSDAPKSEVVNSSTEPKTEETGANGKATDTKITKGSGKHLVICGHGQGRTGYDPGAVNAKLGITEAGKVRELSKLMSKYSGQQIDFITEQNVYDYRSITSIGKGYDSITELHFNAFNGSAKGTEVLIQSSLEADKEDMAILSLLSRYFQNRGIKKVDWLYNANQAASRGYTYRLVEIAFIDNEQDMAIFENKKEDIAKGLVSAITGVEVKTIVPSPPSSTVGSSGTPSKSIYLVGDSLRVLPHATHYQTGQKIANWVKGRTYKILQVKNVHQSNSKRAYLLDGIKSWVLEQDVEGTTKGHSKYHHHHHH
ΔLog10 (CFU/mL) ([1]; Clinical S. uberis 1 (Unknown ST and GCC), 0.3 μM): 0.03 Log10 (CFU/mL)
ΔLog10 (CFU/mL) ([1]; Clinical S. uberis 2 (Unknown ST, GCC 5), 0.3 μM): 4.05±0.07 Log10 (CFU/mL) and 4.05 Log10 (CFU/mL)
ΔLog10 (CFU/mL) ([1]; Clinical S. uberis 3 (Unknown ST, GCC 5), 0.3 μM): 1.82 Log10 (CFU/mL)
ΔLog10 (CFU/mL) ([1]; Clinical S. uberis 4 (ST 815, GCC 143), 0.3 μM): 0.00 Log10 (CFU/mL)
ΔLog10 (CFU/mL) ([1]; Clinical S. uberis 5 (ST 944, GCC 5), 0.3 μM): 0.71 Log10 (CFU/mL)
Δ log10 ([1]; S. uberis 0140J, 0.3 μM): 1.16±0.06 log10
ΔLog10 (CFU/mL) ([1]; Subclinical S. uberis 1 (ST 808, GCC 143), 0.3 μM): 3.02±0.37 Log10 (CFU/mL) and 3.02 Log10 (CFU/mL)
ΔLog10 (CFU/mL) ([1]; Subclinical S. uberis 2 (Unknown ST and GCC), 0.3 μM): 1.13 Log10 (CFU/mL)
ΔLog10 (CFU/mL) ([1]; Subclinical S. uberis 3 (Unknown ST, GCC 5), 0.3 μM): 1.24 Log10 (CFU/mL)
ΔLog10 (CFU/mL) ([1]; Subclinical S. uberis 4 (Unknown ST and GCC), 0.3 μM): 2.48 Log10 (CFU/mL)
log10 reduction ([1]; mastitis-derived S. uberis GCC ST-5, 0.3 μM, versus PBS): 1.17±0.06 log10
ΔLog10 (CFU/mL) (S. dysgalactiae; S. dysgalactiae 1, 1 h): 1.77 Log10 (CFU/mL)
ΔLog10 (CFU/mL) (S. dysgalactiae; S. dysgalactiae 2, 1 h): 0.15 Log10 (CFU/mL)
ΔLog10 (CFU/mL) (S. dysgalactiae; S. dysgalactiae 3, 1 h): 1.11 Log10 (CFU/mL)
log10 reduction (S. dysgalactiae; mastitis-derived S. dysgalactiae, versus PBS): 1.11±0.17 log10
Δ log10, reductions up to (S. dysgalactiae; three clinical S. dysgalactiae isolates): ≤ 1.77±0.43 log10
reduction of biofilm mass (crystal violet) [2]: significant (p<0.001) reduction of the biofilm mass
Δ Log10 reduction of biofilm CFU [2]: 1.17±0.39 Log10
log10 reduction of S. uberis versus PBS control [3]: caused a log10 reduction in all mastitic milk samples after 8 h
